Test results reported in patent publication US20240159767A1.

Biological target: PKA substrate fused to MinD (phosphorylated form) (Escherichia coli)
Experiment: power ratio of live-cell fluorescence oscillations, saturating isoprenaline

FHA1-mCerulean (from UniProt P22216 22-162)
fold increase of the power ratio of the FHA1 signal to the MinDE carrier after a saturating dose of isoprenaline against resting cells: < 7 fold
